Measured values from patent publication US11472877 (Alector, dated 2022).
Substitutions are numbered along the chain they refer to. Each block holds one binder with its values, some of them ahead of it.

How the values were obtained:
mouse TREM2 on BWZ cells [1] = target: T1, mouse TREM2 on BWZ cells (mouse, UniProt Q99NH8 19-227); experiment: FACS, BWZ cells
T1 construct: whole, on cells; also called BWZ Mouse TREM2
T1 sequence (looked up): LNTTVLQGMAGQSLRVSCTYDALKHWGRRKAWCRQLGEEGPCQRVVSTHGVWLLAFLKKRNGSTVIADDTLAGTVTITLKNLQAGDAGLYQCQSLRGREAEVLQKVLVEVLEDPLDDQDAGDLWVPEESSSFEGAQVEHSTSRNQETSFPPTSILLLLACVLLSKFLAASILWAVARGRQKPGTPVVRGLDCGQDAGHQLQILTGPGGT

human TREM2 on BWZ cells [2] = target: T2, human TREM2 on BWZ cells (human, UniProt Q9NZC2 19-230); experiment: FACS, BWZ cells
T2 construct: whole, on cells; not tied to the cell line; also called BWZ Human TREM2
T2 sequence (looked up): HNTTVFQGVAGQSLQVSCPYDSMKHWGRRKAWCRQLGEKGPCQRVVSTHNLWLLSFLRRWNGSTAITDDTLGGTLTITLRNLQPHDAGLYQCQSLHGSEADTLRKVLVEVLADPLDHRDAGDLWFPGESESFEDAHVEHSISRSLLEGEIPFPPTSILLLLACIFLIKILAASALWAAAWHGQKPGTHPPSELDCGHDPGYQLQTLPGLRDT

mouse TREM1 on CHO cells = target: T3, mouse TREM1 on CHO cells (mouse, UniProt Q9JKE2 21-230); experiment: FACS, CHO mouse TREM1
T3 construct: also called CHO-mT1
T3 sequence: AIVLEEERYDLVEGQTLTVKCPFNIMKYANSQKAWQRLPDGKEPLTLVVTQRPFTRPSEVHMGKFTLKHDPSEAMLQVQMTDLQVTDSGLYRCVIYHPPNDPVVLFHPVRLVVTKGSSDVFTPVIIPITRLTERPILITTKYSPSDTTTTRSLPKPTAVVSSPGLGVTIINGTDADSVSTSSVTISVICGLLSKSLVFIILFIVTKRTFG

human TREM2 on BWZ cells [3] = target: T2, human TREM2 on BWZ cells; experiment: FACS, BWZ human TREM2
mouse TREM2 on BWZ cells [4] = target: T1, mouse TREM2 on BWZ cells; experiment: FACS, BWZ mouse TREM2

- binding result (mouse TREM2 on BWZ cells [1]): no binding
- binding result (human TREM2 on BWZ cells [2]): no binding
- FOB Fold Over Background (mouse TREM1 on CHO cells): 447 fold
- FOB Fold Over Background (human TREM2 on BWZ cells [3]): 0.5 fold
- FOB Fold Over Background (mouse TREM2 on BWZ cells [4]): 0.9 fold
B1: T1-31 (antibody, IgG1, V domains shown)
VH: QLQLQESGPGLVKPSETLSLTCTVSGGSISSSSYYWGWIRQPPGKGLEWIGSIYYSGSTYYNPSLKSRVTISVDTSKNQFSLKLSSVTAADTAVYYCARDRRMWDPYGMDVWGQGTTVTVSS
VL: DIQMTQSPSSLSASVGDRVTITCQASQDISNYLNWYQQKPGKAPKLLIYDASNLETGVPSRFSGSGSGTDFTFTISSLQPEDIATYYCQQYDDFPPITFGGGTKVEIK
notes: huIgG1; also called TI-31

- binding result (mouse TREM2 on BWZ cells [1]): no binding
- binding result (human TREM2 on BWZ cells [2]): no binding
- FOB Fold Over Background (mouse TREM1 on CHO cells): 453 fold
- FOB Fold Over Background (human TREM2 on BWZ cells [3]): 0.5 fold
- FOB Fold Over Background (mouse TREM2 on BWZ cells [4]): 0.8 fold
B2: T1-30 (antibody, IgG1, V domains shown)
VH: QLQLQESGPGLVKPSETLSLTCTVSGGSISSSSYYWGWIRQPPGKGLEWIGSIYYSGSTYYNPSLKSRVTISVDTSKNQFSLKLSSVTAADTAVYYCARGRKAAAGIDEAEYFQHWGQGTLVTVSS
VL: DIQMTQSPSSVSASVGDRVTITCRASQGISSWLAWYQQKPGKAPKLLIYAASSLQSGVPSRFSGSGSGTDFTLTISSLQPEDFATYYCQQVISFPTFGGGTKVEIK
notes: huIgG1; also called TI-30

- binding result (mouse TREM2 on BWZ cells [1]): no binding
- binding result (human TREM2 on BWZ cells [2]): no binding
- FOB Fold Over Background (mouse TREM1 on CHO cells): 523 fold
- FOB Fold Over Background (human TREM2 on BWZ cells [3]): 0.8 fold
- FOB Fold Over Background (mouse TREM2 on BWZ cells [4]): 1.2 fold
B3: T1-27 (antibody, IgG1, V domains shown)
VH: QVQLQESGPGLVKPSQTLSLTCTVSGGSISSGGYYWSWIRQHPGKGLEWIGYIYYSGSTYYNPSLKSRVTISVDTSKNQFSLKLSSVTAADTAVYYCARDSSIAGRATLSFDYWGQGTLVTVSS
VL: DIQMTQSPSSLSASVGDRVTITCRASQSISSYLNWYQQKPGKAPKLLIYAASSLQSGVPSRFSGSGSGTDFTLTISSLQPEDFATYYCQQSFYDPITFGGGTKVEIK
notes: huIgG1; also called TI-27

- binding result (mouse TREM2 on BWZ cells [1]): no binding
- binding result (human TREM2 on BWZ cells [2]): no binding
- FOB Fold Over Background (mouse TREM1 on CHO cells): 417 fold
- FOB Fold Over Background (human TREM2 on BWZ cells [3]): 0.8 fold
- FOB Fold Over Background (mouse TREM2 on BWZ cells [4]): 1.2 fold
B5: T1-26 (antibody, IgG1, V domains shown)
VH: QVQLVQSGAEVKKPGASVKVSCKASGYTFTSYYIHWVRQAPGQGLEWMGIINPSGGSTSYAQKFQGRVTMTRDTSTSTVYMELSSLRSEDTAVYYCARDSAQETYYYGMDVWGQGTTVTVSS
VL: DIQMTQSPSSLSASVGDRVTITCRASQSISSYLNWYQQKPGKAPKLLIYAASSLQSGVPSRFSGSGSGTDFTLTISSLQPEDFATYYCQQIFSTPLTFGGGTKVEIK
notes: huIgG1; also called TI-26

- binding result (mouse TREM2 on BWZ cells [1]): no binding
- binding result (human TREM2 on BWZ cells [2]): no binding
- FOB Fold Over Background (mouse TREM1 on CHO cells): 408 fold
- FOB Fold Over Background (human TREM2 on BWZ cells [3]): 0.6 fold
- FOB Fold Over Background (mouse TREM2 on BWZ cells [4]): 1.1 fold
B6: T1-28 (antibody, IgG1, V domains shown)
VH: EVQLVESGGGLVKPGGSLRLSCAASGFTFSSYSMNWVRQAPGKGLEWVSSISSSSNYIYYADSVKGRFTISRDNAKNSLYLQMNSLRAEDTAVYYCARGPSQYYYDSSAIEAFDIWGQGTMVTVSS
VL: EIVLTQSPATLSVSPGERATLSCRASQSVGSNLAWYQQKPGQAPRLLIYGASTRATGIPARFSGSGSGTEFTLTISSLQSEDFAVYYCQQYLYFPLTFGGGTKVEIK
notes: huIgG1; also called TI-28

- binding result (mouse TREM2 on BWZ cells [1]): no binding
- binding result (human TREM2 on BWZ cells [2]): no binding
- FOB Fold Over Background (mouse TREM1 on CHO cells): 1.2 fold
- FOB Fold Over Background (human TREM2 on BWZ cells [3]): 1 fold
- FOB Fold Over Background (mouse TREM2 on BWZ cells [4]): 0.9 fold
B7: T1-80 (antibody, IgG1, V domains shown)
VH: QVQLVESGGGVVQPGRSLRLSCAASGFTFSSYGMHWVRQAPGKGLEWVALIWYDGSNKYYADSVKGRFTISRDNSKNTLYLQMNSLRAEDTAVYYCARELIVGATGGLTYYYGMDVWGQGTTVTVSS
VL: B6 VL with L4M, Y91D, L92H, Y93D, F94R
notes: huIgG1; also called TI-80; ADI-19159

Second part, the binder before the results:

B4: T1-32 (antibody, IgG1, V domains shown)
VH: QLQLQESGPGLVKPSETLSLTCTVSGGSISSSSYYWGWIRQPPGKGLEWIGSIYYSGSTYYNPSLKSRVTISVDTSKNQFSLKLSSVTAADTAVYYCARDAPAVVGESPAFDIWGQGTMVTVSS
VL: B3 VL with S31R, F92L, Y93D, D94L, I96F
notes: huIgG1; also called TI-32
- binding result (mouse TREM2 on BWZ cells [1]): no binding
- binding result (human TREM2 on BWZ cells [2]): no binding
- FOB Fold Over Background (mouse TREM1 on CHO cells): 380 fold
- FOB Fold Over Background (human TREM2 on BWZ cells [3]): 0.9 fold
- FOB Fold Over Background (mouse TREM2 on BWZ cells [4]): 1.2 fold

B8: T1-25 (antibody, IgG1, V domains shown)
VH: EVQLVESGGGLVQPGRSLRLSCAASGFTFDDYAMHWVRQAPGKGLEWVSGISWNSGSIGYADSVKGRFTISRDNAKNSLYLQMNSLRAEDTALYYCAKGGSRYSHFDYWGQGTLVTVSS
VL: EIVLTQSPATLSLSPGERATLSCRASQSVSSYLAWYQQKPGQAPRLLIYDASNRATGIPARFSGSGSGTDFTLTISSLEPEDFAVYYCQQRSVLPLTFGGGTKVEIK
notes: huIgG1; also called TI-25; ADI-19092
- binding result (mouse TREM2 on BWZ cells [1]): no binding
- binding result (human TREM2 on BWZ cells [2]): no binding
- FOB Fold Over Background (mouse TREM1 on CHO cells): 0.9 fold
- FOB Fold Over Background (human TREM2 on BWZ cells [3]): 0.7 fold
- FOB Fold Over Background (mouse TREM2 on BWZ cells [4]): 1.3 fold

B9: T1-29 (antibody, IgG1, V domains shown)
VH: QLQLQESGPGLVKPSETLSLTCTVSGGSISSSSYYWGWIRQPPGKGLEWIGSIYYSGSTYYNPSLKSRVTISVDTSKNQFSLKLSSVTAADTAVYYCARDGGGTAQADGAYYYGMDVWGQGTTVTVSS
VL: B8 VL with R91G, S92V, V93N, L94Y, L96F
notes: huIgG1; also called TI-29
- binding result (mouse TREM2 on BWZ cells [1]): no binding
- binding result (human TREM2 on BWZ cells [2]): no binding
- FOB Fold Over Background (mouse TREM1 on CHO cells): 401 fold
- FOB Fold Over Background (human TREM2 on BWZ cells [3]): 0.7 fold
- FOB Fold Over Background (mouse TREM2 on BWZ cells [4]): 1.2 fold

B10: T1-54 (antibody, IgG1, V domains shown)
VH: QVQLVQSGAEVKKPGSSVKVSCKASGGTFSSYAISWVRQAPGQGLEWMGGIIPIFGTANYAQKFQGRVTITADESTSTAYMELSSLRSEDTAVYYCARHWYALGSFDIWGQGTMVTVSS
VL: B8 VL with L4M, A51S, R91H, S92D, L94W, L96I
notes: huIgG1; also called TI-54; ADI-19129
- binding result (mouse TREM2 on BWZ cells [1]): no binding
- binding result (human TREM2 on BWZ cells [2]): no binding
- FOB Fold Over Background (mouse TREM1 on CHO cells): 3.1 fold
- FOB Fold Over Background (human TREM2 on BWZ cells [3]): 1.1 fold
- FOB Fold Over Background (mouse TREM2 on BWZ cells [4]): 1.2 fold
